Tests used:
dvl2_human DVL2 = dvl2_human DVL2 (UniProt O14641)
dvl3_human DVL3 = dvl3_human DVL3 (UniProt Q92997)
Sequence of UniProt Q92997 (Q92997 whole entry): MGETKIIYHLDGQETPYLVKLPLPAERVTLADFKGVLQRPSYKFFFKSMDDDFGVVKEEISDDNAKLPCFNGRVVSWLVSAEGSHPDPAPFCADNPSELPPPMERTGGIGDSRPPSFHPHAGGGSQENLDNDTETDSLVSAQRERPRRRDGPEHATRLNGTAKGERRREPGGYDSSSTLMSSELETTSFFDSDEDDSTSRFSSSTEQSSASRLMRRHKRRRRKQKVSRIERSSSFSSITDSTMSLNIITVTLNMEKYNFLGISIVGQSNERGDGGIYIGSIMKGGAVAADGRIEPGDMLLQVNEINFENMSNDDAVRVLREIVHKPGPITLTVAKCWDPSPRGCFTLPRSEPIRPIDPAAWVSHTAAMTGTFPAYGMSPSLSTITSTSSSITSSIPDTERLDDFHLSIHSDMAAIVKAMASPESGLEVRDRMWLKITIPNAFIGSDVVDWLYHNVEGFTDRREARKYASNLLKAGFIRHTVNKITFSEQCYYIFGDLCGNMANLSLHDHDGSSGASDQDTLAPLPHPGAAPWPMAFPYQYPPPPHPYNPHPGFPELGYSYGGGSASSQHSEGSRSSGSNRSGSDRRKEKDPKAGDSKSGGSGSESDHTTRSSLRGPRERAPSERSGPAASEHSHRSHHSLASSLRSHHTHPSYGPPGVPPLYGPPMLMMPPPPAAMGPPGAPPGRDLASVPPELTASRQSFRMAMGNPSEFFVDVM

Sequence of DVL1, O14640-2 (O14640 other isoform, or with tags, fused parts or gaps): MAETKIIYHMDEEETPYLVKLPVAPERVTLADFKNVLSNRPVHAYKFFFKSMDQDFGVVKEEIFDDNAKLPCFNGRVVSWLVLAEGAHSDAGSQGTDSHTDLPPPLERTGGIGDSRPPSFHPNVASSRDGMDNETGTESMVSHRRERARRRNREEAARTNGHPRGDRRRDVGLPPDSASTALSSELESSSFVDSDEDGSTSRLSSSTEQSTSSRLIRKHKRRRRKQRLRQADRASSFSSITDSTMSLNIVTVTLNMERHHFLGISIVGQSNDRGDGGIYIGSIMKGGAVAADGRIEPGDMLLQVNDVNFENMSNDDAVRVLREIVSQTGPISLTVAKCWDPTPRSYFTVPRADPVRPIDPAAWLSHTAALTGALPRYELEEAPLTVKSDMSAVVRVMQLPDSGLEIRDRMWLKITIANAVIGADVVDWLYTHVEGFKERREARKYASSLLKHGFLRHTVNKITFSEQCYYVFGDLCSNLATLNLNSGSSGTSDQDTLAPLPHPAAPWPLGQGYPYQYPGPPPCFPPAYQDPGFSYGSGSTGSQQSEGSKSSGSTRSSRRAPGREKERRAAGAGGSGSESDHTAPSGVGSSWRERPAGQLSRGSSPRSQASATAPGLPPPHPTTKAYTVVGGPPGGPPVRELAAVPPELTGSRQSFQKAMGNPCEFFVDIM
Sequence of UniProt O14641 (O14641 whole entry): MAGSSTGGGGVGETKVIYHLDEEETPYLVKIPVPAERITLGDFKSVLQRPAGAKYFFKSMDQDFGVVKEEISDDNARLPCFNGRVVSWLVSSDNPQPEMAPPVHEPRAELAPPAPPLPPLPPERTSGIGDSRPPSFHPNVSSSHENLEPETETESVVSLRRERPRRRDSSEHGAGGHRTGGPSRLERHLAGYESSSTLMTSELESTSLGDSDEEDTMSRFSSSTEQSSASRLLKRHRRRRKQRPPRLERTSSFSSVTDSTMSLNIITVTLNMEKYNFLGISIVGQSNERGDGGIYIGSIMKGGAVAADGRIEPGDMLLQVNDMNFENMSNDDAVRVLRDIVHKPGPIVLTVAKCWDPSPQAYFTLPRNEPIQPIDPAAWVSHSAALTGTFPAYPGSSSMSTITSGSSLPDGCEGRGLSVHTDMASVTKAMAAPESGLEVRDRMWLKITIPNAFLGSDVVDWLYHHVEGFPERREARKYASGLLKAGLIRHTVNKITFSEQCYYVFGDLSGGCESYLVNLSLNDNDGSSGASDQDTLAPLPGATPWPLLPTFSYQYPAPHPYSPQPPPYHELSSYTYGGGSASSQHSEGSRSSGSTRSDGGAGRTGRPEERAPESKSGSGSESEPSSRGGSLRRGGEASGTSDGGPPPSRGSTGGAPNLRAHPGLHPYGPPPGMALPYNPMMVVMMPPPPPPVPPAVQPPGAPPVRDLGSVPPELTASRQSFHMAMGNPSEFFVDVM

| Substance | effect of a mutation on the interaction (DVL1, O14640-2) | effect of a mutation on the interaction (dvl2_human DVL2) | effect of a mutation on the interaction (dvl3_human DVL3) |
| --- | --- | --- | --- |
| Leucine-rich repeat serine/threonine-protein kinase 2 (Homo sapiens), Q5S007 R1441C | increasing interaction | – | – |
| Leucine-rich repeat serine/threonine-protein kinase 2 (Homo sapiens), Q5S007 R1441G | increasing interaction | – | – |
| Leucine-rich repeat serine/threonine-protein kinase 2 (Homo sapiens), Q5S007 R1441H | increasing interaction | – | – |
| Leucine-rich repeat serine/threonine-protein kinase 2 (Homo sapiens), Q5S007 R1514Q | – | decreasing interaction | – |
| Leucine-rich repeat serine/threonine-protein kinase 2 (Homo sapiens), Q5S007 R1728H | increasing interaction | – | – |
| Leucine-rich repeat serine/threonine-protein kinase 2 (Homo sapiens), Q5S007 R1728L | increasing interaction | – | – |
| Leucine-rich repeat serine/threonine-protein kinase 2 (Homo sapiens), Q5S007 Y1699C | decreasing interaction | decreasing interaction | decreasing interaction |

Reference: IntAct's records for PubMed 19625296
